Values of other authors, collected in PMC9200754.

What was measured:
p65 (Homo sapiens) = p65 (Homo sapiens) (UniProt Q04206); settings: cited from earlier work
p50 (Homo sapiens) = p50 (Homo sapiens) (UniProt P19838); settings: cited from earlier work

UniProt Q04206, sequence (Q04206 whole entry): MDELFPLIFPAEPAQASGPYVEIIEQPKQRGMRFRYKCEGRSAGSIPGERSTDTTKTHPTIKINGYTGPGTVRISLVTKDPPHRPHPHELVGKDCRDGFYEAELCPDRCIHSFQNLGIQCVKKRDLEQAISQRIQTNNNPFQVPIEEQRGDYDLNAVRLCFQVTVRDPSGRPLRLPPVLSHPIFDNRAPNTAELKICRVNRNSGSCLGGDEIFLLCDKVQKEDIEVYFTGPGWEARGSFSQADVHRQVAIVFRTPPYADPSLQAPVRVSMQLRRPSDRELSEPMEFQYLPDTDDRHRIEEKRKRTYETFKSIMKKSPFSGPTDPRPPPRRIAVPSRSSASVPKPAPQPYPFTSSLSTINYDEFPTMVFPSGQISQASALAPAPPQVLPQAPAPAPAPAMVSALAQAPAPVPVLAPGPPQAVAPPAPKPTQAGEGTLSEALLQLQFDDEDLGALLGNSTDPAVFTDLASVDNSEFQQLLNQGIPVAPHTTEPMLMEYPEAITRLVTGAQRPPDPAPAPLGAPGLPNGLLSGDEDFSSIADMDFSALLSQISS

In the case of p50 (from UniProt P19838), the Kd (p65 (Homo sapiens)) is listed as 10 nM and the Kd (p50 (Homo sapiens)) is listed as 30 nM.
